The text below walks through data of patent publication US20220259289A1 (Janssen / Centocor, published 2022).

The target of assay [1] is human serum albumin (human) (UniProt P02768). The experiment in a line: ELISA, negative control HSA. Background: In an ELISA, binding on a coated surface is turned into a signal by an enzyme label.
In assay [2] the target is unrelated Fc-fused recombinant protein. Briefly: ELISA, negative control Fc protein.
Assay [3] addresses T1, recombinant biotinylated CD137 protein (Fc-fusion protein, R&D Systems 838-4B) (human, UniProt Q07011 24-186, biotinylated, sites not stated).
T1 construct: Bought Fc fusion; also called CD137-Fc
The experiment in a line: ELISA, lysate on biotinylated CD137-Fc. The gist of the method:
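Biotinylated CD137-Fc, an unrelated Fc-fusion protein or human serum albumin captured 1 h on streptavidin plates blocked in Starting Block T20; diluted bacterial lysate applied 1 h. Bound binders detected with HRP-conjugated anti-Centyrin antibody (PAB25) for 1 h, then POD substrate read-out.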

human serum albumin (human), sequence (P02768 25-609 limits assumed): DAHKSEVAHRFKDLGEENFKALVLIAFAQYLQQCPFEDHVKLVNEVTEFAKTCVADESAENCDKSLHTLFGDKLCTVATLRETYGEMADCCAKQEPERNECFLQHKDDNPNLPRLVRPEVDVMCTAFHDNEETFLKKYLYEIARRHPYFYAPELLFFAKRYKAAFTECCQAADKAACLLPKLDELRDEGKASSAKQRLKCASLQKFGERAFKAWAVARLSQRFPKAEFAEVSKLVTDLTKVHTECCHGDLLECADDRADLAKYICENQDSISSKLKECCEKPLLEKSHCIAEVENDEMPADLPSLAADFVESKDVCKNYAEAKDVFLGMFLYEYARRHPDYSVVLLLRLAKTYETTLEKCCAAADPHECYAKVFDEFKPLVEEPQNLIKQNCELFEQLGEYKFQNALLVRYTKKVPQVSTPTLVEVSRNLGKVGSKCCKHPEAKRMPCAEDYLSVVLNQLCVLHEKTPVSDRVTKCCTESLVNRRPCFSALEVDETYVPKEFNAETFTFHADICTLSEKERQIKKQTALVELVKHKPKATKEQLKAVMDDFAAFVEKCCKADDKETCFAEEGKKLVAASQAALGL

B1: ISOP193FR9P1A5 (designed binder, not shown: small tags and cut ends)
chain: LPAPKNLVVSRVTEDSARLSWTAPDAAFDSFEIYYIEPIAPGEAIVLTVPGSERSYDLTGLKPGTEYWVTIYGVKGCDWSDPLSAIFTT
On to B1, for which, in assay [1], the ELISA HSA (RLU) was 26200 RLU. The ELISA Fc Control (RLU) in assay [2] came out at 95100 RLU. Besides, the “ELISA CD137 (RLU)” value in assay [3] was found to be 9.07e+06 RLU.

B2: ISOP193FR9P1C1 (designed binder, not shown: small tags and cut ends)
chain: LPAPKNLVVSRVTEDSARLSWTAPDAAFDSFEIYYFENENGGEAIVLTVPGSERSYDLTGLKPGTEYLVTIYGVKGCDWSDPLSAIFTT
As to B2, the ELISA HSA (RLU) in assay [1] is 8160 RLU. Further, in assay [2], the ELISA Fc Control (RLU) amounted to 36800 RLU. For the same molecule, the “ELISA CD137 (RLU)” value in assay [3] was 1.41e+07 RLU.

B3: ISOP193FR9P1D7 (designed binder, not shown: small tags and cut ends)
chain: LPAPKNLVVSRVTEDSARLSWTAPDAAFDSFEIYYAEYFKNGEAIVLTVPGSERSYDLTGLKPGTEYLVTIYGVKGCDWSDPLSAISTT
B3 had an ELISA HSA (RLU) in assay [1] of 2640 RLU. In addition, in assay [2], the ELISA Fc Control (RLU) worked out at 15000 RLU. Also, the “ELISA CD137 (RLU)” value in assay [3] is 2.2e+06 RLU.

B4: ISOP193HR9P1A7 (designed binder, not shown: small tags and cut ends)
chain: LPAPKNLVVSRVTEDSARLSWTAPDAAFDSFDIYYYELRLGGEAIVLTVPGSERSYDLTGLKPGTEYLVTIYGVKVCNASTPLSAIFTT
The molecule B4 displayed an ELISA HSA (RLU) in assay [1] of 12600 RLU. For the same molecule, the ELISA Fc Control (RLU) in assay [2] was 48900 RLU. In addition, in assay [3], the “ELISA CD137 (RLU)” value was 1.48e+07 RLU.

B5: ISOP193FR9P1D5 (designed binder, not shown: small tags and cut ends)
chain: LPAPKNLVVSRVTEDSARLSWTAPDAAFDSFYIRYIEDVDFGEAIVLTVPGSERSYDLTGLKPGTEYLVTIYGVKGCDWSDPLSAIFTT
As for B5, the ELISA HSA (RLU) in assay [1] amounted to 10800 RLU. Moreover, the ELISA Fc Control (RLU) in assay [2] was 51700 RLU. In assay [3], the “ELISA CD137 (RLU)” value was determined as 6.05e+06 RLU.

B6: ISOP193FR9P1G9 (designed binder, not shown: small tags and cut ends)
chain: LPAPKNLFVSRVTEDSARLSWTAPDAAFDSFQIYYREQWWDGEAIVLTVPGSERSYDLTGLKPGTEYLVTIYGVKGCDWSDPLSAIFTT
Regarding B6, in assay [1], the ELISA HSA (RLU) was 6800 RLU. Moreover, the ELISA Fc Control (RLU) in assay [2] was 33600 RLU. Also, the “ELISA CD137 (RLU)” value in assay [3] was found to be 1.28e+07 RLU.

B7: ISOP193FR9P1F8 (designed binder, not shown: small tags and cut ends)
chain: LPAPKNLVVSRVTEDSARLSWTAPDAAFDSFDINYFENELGGEAIVLTVPGSERSYDLTGLKPGTEYLVTIYGVKGCDWSDPLSAIFTT
In assay [1], B7 came in with an ELISA HSA (RLU) of 5040 RLU. Also, the ELISA Fc Control (RLU) in assay [2] was 25700 RLU. The “ELISA CD137 (RLU)” value in assay [3] stood at 8.57e+06 RLU.

B8: ISOP193HR9P1B7 (designed binder, not shown: small tags and cut ends)
chain: LPAPKNLVVSRVTEDSARLSWTAPDAAFDSFEIYYFELRLGGEAIVLTVPGSERSYDLTGLKPGTEYLVSIYGVKGCGYSDPLSAIFTT
In turn, B8 registered an ELISA HSA (RLU) in assay [1] of 2240 RLU. For the same molecule, the ELISA Fc Control (RLU) in assay [2] turned out to be 13000 RLU. Moreover, the “ELISA CD137 (RLU)” value in assay [3] worked out at 1.64e+07 RLU.

B9: ISOP193FR9P1C9 (designed binder, not shown: small tags and cut ends)
chain: LPAPKNLVVSRVTEDSARLSWTAPDAAFDSFQIYYFEWVVGGEAIVLTVPGSERSYDLTGLKPGTEYLVTIYGVKGCDWSDPLSAIFTT
For B9, the ELISA HSA (RLU) in assay [1] was 4000 RLU. Moreover, the ELISA Fc Control (RLU) in assay [2] is 21000 RLU. Also, the “ELISA CD137 (RLU)” value in assay [3] amounted to 1.23e+07 RLU.

B10: ISOP193FR9P1G8 (designed binder, not shown: small tags and cut ends)
chain: LPAPKNLVVSRVTEDSARLSWTAPDAAFDSFEIYYFENELGGEAIVLTVPGSERSYDLTGLKPGTEYLVTIYGVKGCDWSDPLSAIFTT
In assay [1], B10 had an ELISA HSA (RLU) of 5040 RLU. In assay [2], the ELISA Fc Control (RLU) was 25100 RLU. Also, the “ELISA CD137 (RLU)” value in assay [3] was 1.45e+07 RLU.

B11: ISOP193HR9P1A6 (designed binder, not shown: small tags and cut ends)
chain: LPAPKNLVVSRVTEDSARLSWTAPDAAFDSFDIYYYELRLGGEAIVLTVPGSERSYDLTGLKPGTEYLVSIYGVKGCGYSDPLSAIFTT
For B11, the ELISA HSA (RLU) in assay [1] is 5120 RLU. Further, in assay [2], the ELISA Fc Control (RLU) is 25000 RLU. In addition, the “ELISA CD137 (RLU)” value in assay [3] came to 1.46e+07 RLU.

B12: ISOP193FR9P1G11 (designed binder, not shown: small tags and cut ends)
chain: LPAPKNLVVSRVTEDSARLSWTAPDAAFDSFTIYYFENENGGEAIVLTVPGSERSYDLTGLKPGTEYLVTIYGVKGCDWSDPLSAIFTT
For B12, the ELISA HSA (RLU) in assay [1] amounted to 11000 RLU. In addition, in assay [2], the ELISA Fc Control (RLU) was 60600 RLU. The “ELISA CD137 (RLU)” value in assay [3] is 1.08e+07 RLU.

B13: ISOP193HR9P1D8 (designed binder, not shown: small tags and cut ends)
chain: LPAPKNLVVSRVTEDSARLSWTAPDAAFDSFDIYYLESGRDGEAIVLTVPGSERSYDLTGLKPGTEYLVSIYGVKGCGYSDPLSAIFTT
With B13, the ELISA HSA (RLU) in assay [1] amounted to 2640 RLU. Besides, the ELISA Fc Control (RLU) in assay [2] was 10900 RLU. Also, the “ELISA CD137 (RLU)” value in assay [3] came to 6.27e+06 RLU.

B14: ISOP193FR9P1C5 (designed binder, not shown: small tags and cut ends)
chain: LPAPKNLVVSRVTEDSARLSWTAPDAAFDSFHIYYLEQYSRGEAIVLTVPGSERSYDLTGLKPGTEYLVTIYGVKGCDWSDPLSAIFTT
Take B14: the ELISA HSA (RLU) in assay [1] came to 19200 RLU. Moreover, the ELISA Fc Control (RLU) in assay [2] is 79300 RLU. Also, the “ELISA CD137 (RLU)” value in assay [3] was found to be 8.66e+06 RLU.

B15: ISOP193HR9P1C7 (designed binder, not shown: small tags and cut ends)
chain: LPAPKNLVVSRVTEDSARLSWTAPDAAFDSFEIYYLELDSDGEAIVLTVPGSERSYDLTGLKPGTEYIVTIYGVKVCTGSRPLSAIFTT
Regarding B15, the ELISA HSA (RLU) in assay [1] was 10000 RLU. For the same molecule, the ELISA Fc Control (RLU) in assay [2] was determined as 71400 RLU. Also, the “ELISA CD137 (RLU)” value in assay [3] was 3.44e+06 RLU.

B16: ISOP193HR9P1A5 (designed binder, not shown: small tags and cut ends)
chain: LPAPKNLVVSRVTEDSARLSWTAPDAAFDSFDIYYYELRLGGEAIVLTVPGSERSYDLTGLKPGTEYLVTIYGVKGCGYSAPLSAIVTT
The molecule B16 showed an ELISA HSA (RLU) in assay [1] of 2080 RLU. Also, in assay [2], the ELISA Fc Control (RLU) came to 6080 RLU. For the same molecule, the “ELISA CD137 (RLU)” value in assay [3] was found to be 1.49e+07 RLU.

B17: ISOP193HR9P1B11 (designed binder, not shown: small tags and cut ends)
chain: LPAPKNLVVSRVTEDSARLSWTAPDAAFDSFEIYYFELRLGGEAIVLTVPGSERSYDLTGLKPGTEYLVTIYGVKGCGYSDPLSAIFTT
In turn, B17 displayed an ELISA HSA (RLU) in assay [1] of 4080 RLU. For the same molecule, the ELISA Fc Control (RLU) in assay [2] is 15000 RLU. The “ELISA CD137 (RLU)” value in assay [3] worked out at 1.66e+07 RLU.

B18: ISOP193FR9P1H6 (designed binder, not shown: small tags and cut ends)
chain: LPAPKNLVVSRVTEDSARLSWTAPDAAFDSFDINYFEQPKGGEAIVLTVPGSERSYDLTGLKPGTEYLVTIYGVKGCDWSDPLSAIFTT
On to B18, for which the ELISA HSA (RLU) in assay [1] worked out at 23000 RLU. The ELISA Fc Control (RLU) in assay [2] is 88300 RLU. Also, the “ELISA CD137 (RLU)” value in assay [3] was 1.12e+07 RLU.

B19: ISOP193FR9P1G7 (designed binder, not shown: small tags and cut ends)
chain: LPAPKNLVVSRVTEDSARLSWTAPDAAFDSFHIHYLEGEWGGEAIVLTVPGSERSYDLTGLKPGTEYLVTIYGVKGCDWSDPLSAIFTT
Take B19: the ELISA HSA (RLU) in assay [1] was determined as 11000 RLU. In addition, the ELISA Fc Control (RLU) in assay [2] was found to be 42300 RLU. Moreover, the “ELISA CD137 (RLU)” value in assay [3] is 5.5e+06 RLU.

B20: ISOP193FR9P1E10 (designed binder, not shown: small tags and cut ends)
chain: LPAPKNLVVSRVTEDSARLSWTTPDAAFDSFHIHYLEGEWGGEAIVLTVPGSERSYDLTGLKPGTEYLVTIYGVKGCDWSDPLSAIFTT
With B20, the ELISA HSA (RLU) in assay [1] was 31000 RLU. In addition, the ELISA Fc Control (RLU) in assay [2] amounted to 133000 RLU. The “ELISA CD137 (RLU)” value in assay [3] came out at 2.05e+06 RLU.
